Measurements published in patent publication US20210395742.

What was measured:
Assay in all cases: EMSA
[1] = test system: Mouse IgG2b (Mus musculus); settings: T = 5-ethynyldeoxyuridine clicked with sulfo-HSAB (NHS ester), covalent binding fraction
[2] = test system: Mouse IgG2a (Mus musculus); settings: T = 5-ethynyldeoxyuridine clicked with sulfo-HSAB (NHS ester), covalent binding fraction
[3] = test system: Mouse IgG1 monoclonal antibody (including anti-streptavidin) (Mus musculus); settings: T = 5-ethynyldeoxyuridine clicked with sulfo-HSAB (NHS ester); for EC50: half-maximal covalent binding (estimate), Kd not determinable; for binding signal (% bound fraction): maximum covalent binding fraction
[4] = core of consensus SEQ:22, flanks not given
[5] = core of consensus SEQ:23, flanks not given

| Sequence | binding signal (% bound fraction) [1, 4] | binding signal (% bound fraction) [2, 4] | EC50 ([3]; core of consensus SEQ:22, flanks not given, Cu(II) dependent) [nM] | binding signal (% bound fraction) [3, 4] | binding signal (% bound fraction) [1, 5] | binding signal (% bound fraction) [2, 5] | EC50 [3, 5] [nM] | binding signal (% bound fraction) [3, 5] |
| --- | --- | --- | --- | --- | --- | --- | --- | --- |
| AGCGCGGAACCGTGCCTGGC [Fc clone 1] | 10 | 40 | < 10 | 40 | – | – | – | – |
| TAACGCARTAAGCGAG [Fc clone 2] | – | – | – | – | 2 | 20 | < 10 | 20 |
